Experimental data published in paper PMC2563037.
Non-standard residues stand in square brackets, D forms with d. No end group written: not given here. Abu = CC[C@H](N)C(=O)O

B1: S598_(Q600Y)-Aba peptide (heteroclitic S598 determinant with Q to Y at position 3, cysteine replaced by L-alpha-aminobutyric acid) (peptide)
peptide: R[Abu]YIFANI
B2: S598-Aba peptide (S598 determinant of the JHMV spike glycoprotein, cysteine replaced by L-alpha-aminobutyric acid) (peptide)
peptide: R[Abu]QIFANI

Target: H-2K^b (MHC class I heavy chain with its light chain, the 'heterodimer' of the crystal structures) (mouse | not stated)
Assay: circular dichroism thermal melt; far-UV CD of the H-2K^b/peptide-Aba complexes, thermostatted cuvette, 30 to 90°C

| Binder | Tm of the complex [°C] |
| --- | --- |
| B1 | 64 |
| B2 | 54 |
